From the Human Domainome abundance scans (Beltran et al. 2025)

B1: Transitional endoplasmic reticulum ATPase, residues 26 to 106; numbered along this chain, P55072 (parent)
chain: LIVDEAINEDNSVVSLSQPKMDELQLFRGDTVLLKGKKRREAVCIVLSDDTCSDEKIRMNRVVRNNLRVRLGDVISIQPCP

Variants of: B1
Assay: abundance fitness (aPCA) (normalised: wild type 0, dead -1); higher = more abundant; growth selection in yeast, the domain comes from the species named
Settings: Homo sapiens

Abundance fitness: each site, then its substitutions
N8: S -0.036, W -0.13, F -0.083, V -0.096, Y 0.006, R -0.083, D 0.075, I -0.042, Q -0.025, H -0.042, C -0.015, L -0.022, M -0.099, E 0.013, A -0.059, P -0.096, K -0.011, T 0.046, G 0.022
I7: L 0.048, N -0.193, R -0.042, Q -0.17, Y -0.238, C -0.021, E 0.127, A -0.019, W -0.003, M 0.039, S -0.048, T -0.099, G -0.011, H -0.15, F 0.009, D 0.032, V -0.07
E9: N 0.184, V -0.157, S 0.043, D 0.041, H -0.109, L -0.087, C 0.045, F -0.057, P 0.048, Q -0.127, T -0.107, K -0.216, Y -0.129, W -0.098
E23: Y -0.164, R -0.09, V -0.142, S -0.062, C -0.496, T -0.041, W -0.338, Q -0.104, P -1.16, D -0.23, G -0.079, H -0.2, A -0.103, F -0.263, L -0.148, K -0.187, N -0.112, I -0.126, M 0.085
L16: Q -0.584, F -0.267, P -0.788, E -0.762, V -0.139, K -0.783, W -0.912, T -0.793, G -0.895, N -0.766, I -0.005, C -0.083, A -0.65, S -0.595
D22: E -0.038, Q 0.023, R -0.015, P -0.862, G -0.101, F -0.1, A -0.109, C -0.083, Y -0.067, S -0.084, N -0.036, T -0.037, K -0.063, W -0.281, M -0.06, L -0.008, I -0.118, V -0.049
S17: F -0.698, L -0.854, G -0.153, D -1.01, P -0.365, A -0.174, H -0.396, C -0.381, V -1.03, K -0.361, Y -0.806, R -0.431, M -0.995, I -0.79, Q -0.671
V14: G -0.758, S -0.801, E -0.945, C -0.11, T -0.743, I 0.042, Q -1.02, A -0.341, F -1.06, L -0.763, K -0.856, R -0.884, W -0.816, D -0.704, Y -0.803, P -0.977, H -0.956
M21: S -1.03, Q -0.752, L 0.048, P -0.902, A -0.638, E -0.731, V -0.759, R -0.888, C -0.435, T -0.825, Y -0.516, H -1.21, K -0.881, I -0.124, G -0.894
K20: I -0.008, V 0.004, R -0.019, S -0.162, N -0.093, C -0.096, Q -0.014, A -0.005, F -0.233, L 0.01, E -0.705, W -0.391, T -0.08, M 0.04, H -0.389, P -1.19, D -0.39
S12: G 0.029, I -0.166, K -0.035, Y -0.119, L -0.019, V -0.067, N -0.086, P -0.126, M 0.088, Q 0.093, C -0.056, T 0.082, F -0.036, E 0.039, R -0.038, A 0.035, D 0.019
E5: W -0.051, S 0.029, P -0.149, I -0.045, L -0.107, Y 0.048, Q -0.124, T -0.1, D 0.003, C -0.013, N -0.018, H -0.224, G -0.032, F 0.016, V -0.068, M 0.042
P19: A -0.018, K -0.252, Y 0.072, C -0.179, I 0.088, D -0.101, V 0.047, W -0.016, M 0.015, E 0.087, Q 0.093, H -0.003, S 0.051, N -0.251, G 0.063
N11: I -0.024, E 0.031, W -0.26, L -0.007, M -0.029, K -0.084, R -0.042, P -0.011, T -0.028, H 0.103, A -0.105, C -0.091, G -0.067, S 0.039, V -0.067, Y -0.079, F -0.208
Q18: M 0.249, E -0.114, I -0.088, Y -0.23, H 0.036, D -0.264, R -0.046, A -0.003, P -0.078, W -0.206, K -0.037, S -0.052, G -0.034, C -0.074, N -0.461, V 0.001, T -0.148, F -0.191, L -0.049
A6: F 0.093, R -0.084, I 0.002, Q 0.007, P 0.024, T 0.046, K -0.154, H 0.001, V -0.133, D -0.054, Y -0.404, W -0.006, N -0.004, L 0.092, G 0.024, C -0.048, S 0.029, E -0.107
D4: E -0.015, I 0.052, C 0.096, H -0.04, K -0.271, N -0.332, V -0.082, L -0.203, T -0.017, Y -0.32, W -0.091, F -0.345, R -0.627, S -0.018, G -0.085, M -0.041, Q -0.179, P -1.11
V13: C 0.056, K -0.183, W -0.006, I 0.053, A -0.125, Y 0.044, H 0.053, M -0.143, N -0.236, E -0.127, L -0.095, D -0.103, G -0.06, Q -0.112, R -0.113, P -0.457
S15: M -0.058, I 0.002, T 0.004, F 0.087, P -0.591, V 0.07, D -0.674, R -0.001, W -0.091, Y 0, C -0.006, Q 0.082, H -0.039, G 0.034, N 0.08, E 0.008
D10: E -0.159, Y -0.096, I -0.121, P -0.02, L -0.105, N -0.228, K -0.007, M -0.054, R -0.158, S -0.14, V -0.14, A -0.059, T -0.01, W -0.189, C -0.165, Q -0.072, H 0.098
